{"source": "paper PMC7510979", "about": "“Kinetic and structural insights into enzymatic mechanism of succinic semialdehyde dehydrogenase from Cyanothece sp. ATCC51142” (PLoS ONE, 2020)", "molecules": {"B1": {"name": "cce4228 protein (succinic semialdehyde dehydrogenase, SSADH) (Crocosphaera subtropica ATCC 51142; S420A) (protein)", "chain": "MGIATVNPATGETVKIFEPITVDEIEVKLALAETTFRQYRKISLEQRSQWLKAAADILERDQQKLGEIMTLEMGKPIKGAIAEAKKCALVCRYYADNAAEFLKDVEAQTDASRSFIRYQPLGVILAVMPWNFPLWQVFRFAAPALMAGNVGILKHASNVPQCALAVEAILAEAGFPAGCFQTFLIGASEVESIINDPRVKAATLTGSEPAGASLASAAGKQIKKTVLELGGSDPFIVLESADIEAAATTAVTARMLNNGQSCIAAKRFILAESIADEFQALLLEKFKALKVGDPMEEDTDIGPLANASMLLELNQQVQETVTKGGTILLGGHIISDRPGYFYPPTILTDIPVDSPGYYDEFFGPVALLFRVKDIDQAIELANDTIFGLGASAWTNDSAEQDRLIEDIEAGCVFINGMVKADPRLPFGGIKRSGYGRELSIEGMQEFLNVKTVWIK", "notes": "full ORF in pET-28a, N-terminal 6xHis kept, E. coli BL21(DE3), Ni-NTA; native ca. 109 kDa"}, "B2": {"name": "cce4228 protein (succinic semialdehyde dehydrogenase, SSADH) (Crocosphaera subtropica ATCC 51142; K154A) (protein)", "chain": "B1 chain with K154A, A420S", "notes": "as for B1"}, "B3": {"name": "cce4228 protein (succinic semialdehyde dehydrogenase, SSADH) (Crocosphaera subtropica ATCC 51142; S157E) (protein)", "chain": "B1 chain with S157E, A420S", "notes": "as for B1"}, "B4": {"name": "cce4228 protein (succinic semialdehyde dehydrogenase, SSADH) (Crocosphaera subtropica ATCC 51142; R139A) (protein)", "chain": "B1 chain with R139A, A420S", "notes": "as for B1"}}, "key": {"[1]": {"target": "T1, cce4228 protein (succinic semialdehyde dehydrogenase, SSADH) (Crocosphaera subtropica, UniProt B1WSJ7)", "T1 construct": "gene gabD; full ORF in pET-28a, N-terminal 6xHis kept, E. coli BL21(DE3), Ni-NTA; native ca. 109 kDa", "T1 sequence (B1WSJ7 1-455)": "B1 chain with A420S", "test": "initial velocity at […] nm", "assay_type": "biochemical", "settings": "MgCl2, 50 mM CHES pH 9.0, 25°C, table marks wild-type data as from ref. 26, read-out: wild-type^e, cited from earlier work"}, "[2]": {"target": "succinic semialdehyde dehydrogenase cce4228 protein from Cyanothece sp. ATCC51142 (wild-type, recombinant) (Cyanothece sp. ATCC51142)", "test": "SEC; size exclusion chromatography of purified recombinant cce4228 with standard protein ladders; native mass compared with the subunit mass"}, "[3]": {"target": "T1, cce4228 protein (succinic semialdehyde dehydrogenase, SSADH)", "test": "initial velocity at […] nm, excess-substrate inhibition fit", "assay_type": "biochemical", "settings": "0.5 mM NADP+, MgCl2, 50 mM CHES pH 9.0, 25°C; table marks wild-type data as from ref. 26; read-out: wild-type^e; cited from earlier work"}, "purified protein [4]": {"substrate": "O=CCCC(=O)O", "test": "purified protein", "assay_type": "biochemical, Crocosphaera subtropica", "settings": "MgCl2, 50 mM CHES pH 9.0, 25°C"}, "purified protein [5]": {"substrate": "NC(=O)c1ccc[n+]([C@@H]2O[C@H](COP(=O)(O)OP(=O)(O)OC[C@H]3O[C@@H](n4cnc5c(N)ncnc54)[C@H](O)[C@@H]3O)[C@@H](O)[C@H]2O)c1", "test": "purified protein", "assay_type": "biochemical, Crocosphaera subtropica", "settings": "0.02 mM SSA, MgCl2, 50 mM CHES pH 9.0, 25°C, varied: cofactor"}, "purified protein [6]": {"substrate": "NC(=O)c1ccc[n+]([C@@H]2O[C@H](COP(=O)(O)OP(=O)(O)OC[C@H]3O[C@@H](n4cnc5c(N)ncnc54)[C@H](OP(=O)(O)O)[C@@H]3O)[C@@H](O)[C@H]2O)c1", "test": "purified protein", "assay_type": "biochemical, Crocosphaera subtropica", "settings": "0.02 mM SSA, MgCl2, 50 mM CHES pH 9.0, 25°C, varied: cofactor"}}, "note": "Changes are numbered by the printed parent chain. Numbers in names are those of the source.", "data": [{"molecule": "NC(=O)c1ccc[n+]([C@@H]2O[C@H](COP(=O)(O)OP(=O)(O)OC[C@H]3O[C@@H](n4cnc5c(N)ncnc54)[C@H](OP(=O)(O)O)[C@@H]3O)[C@@H](O)[C@H]2O)c1", "note": "[NADP^+]", "values": [{"measurement": "Km", "setting": "[1]; 0.2 mM SSA", "result": "34 ± 2", "unit": "µM"}]}, {"molecule": "succinic semialdehyde dehydrogenase cce4228 protein from Cyanothece sp. ATCC51142 (wild-type, recombinant) (enzyme)", "values": [{"measurement": "stoichiometry N", "setting": "[2]", "result": 2}]}, {"molecule": "O=CCCC(=O)O", "note": "[succinic semialdehyde]", "values": [{"measurement": "Km", "setting": "[3]", "result": "8 ± 3", "unit": "µM"}]}, {"molecule": "NC(=O)c1ccc[n+]([C@@H]2O[C@H](COP(=O)(O)OP(=O)(O)OC[C@H]3O[C@@H](n4cnc5c(N)ncnc54)[C@H](O)[C@@H]3O)[C@@H](O)[C@H]2O)c1", "note": "[NAD^+]", "values": [{"measurement": "Km", "setting": "[1]; 0.02 mM SSA", "result": "1700 ± 200", "unit": "µM"}]}, {"molecule": "B1", "values": [{"measurement": "Km", "setting": "purified protein [4]; NADP+ as cofactor", "result": "70 ± 10", "unit": "µM"}, {"measurement": "kcat", "setting": "purified protein [4]; NADP+ as cofactor", "result": "9.3 ± 0.9", "unit": "s⁻¹"}]}, {"molecule": "B2", "values": [{"measurement": "Km", "setting": "purified protein [5]", "result": "1500 ± 400", "unit": "µM"}, {"measurement": "Km", "setting": "purified protein [6]", "result": "6100 ± 1500", "unit": "µM"}, {"measurement": "Km", "setting": "purified protein [4]; 8 mM NADP+", "result": "20 ± 10", "unit": "µM"}, {"measurement": "kcat", "setting": "purified protein [4]; 8 mM NADP+", "result": "0.1 ± 0.05", "unit": "s⁻¹"}, {"measurement": "kcat/Km", "setting": "purified protein [4]; 8 mM NADP+", "result": 5000, "unit": "M⁻¹ s⁻¹"}]}, {"molecule": "B3", "values": [{"measurement": "Km", "setting": "purified protein [5]", "result": "510 ± 40", "unit": "µM"}, {"measurement": "Km", "setting": "purified protein [6]", "result": "1100 ± 200", "unit": "µM"}, {"measurement": "Km", "setting": "purified protein [4]; 10 mM NADP+", "result": "2.8 ± 0.7", "unit": "µM"}, {"measurement": "kcat", "setting": "purified protein [4]; 10 mM NADP+", "result": "1.5 ± 0.1", "unit": "s⁻¹"}, {"measurement": "kcat/Km", "setting": "purified protein [4]; 10 mM NADP+", "result": 535000, "unit": "M⁻¹ s⁻¹"}]}, {"molecule": "B4", "values": [{"measurement": "Km", "setting": "purified protein [4]; NADP+ as cofactor", "result": "112 ± 8", "unit": "µM"}, {"measurement": "kcat", "setting": "purified protein [4]; NADP+ as cofactor", "result": "0.54 ± 0.01", "unit": "s⁻¹"}]}]}
